Five molecules from paper PMC11009412, “Pathogenic mutations of human phosphorylation sites affect protein–protein interactions” (Nature Communications, 2024) can be followed below.

The assay deals with BirA*-FLAG-GATAD1 variants in Flp-In-293 cells. Kind of assay: BioID proximity labelling of full-length GATAD1 variants (SILAC). Format: cell-based, human. Particulars: GATAD1 WT vs S102P, significant proteins only; for Log2_Ratio.H.L.normalized.WT_S102P_forward: forward experiment (label swap performed, sign inverted against the H/L ratio); for Log2_Ratio.H.L.normalized.WT_S102P_forward / Log2_Ratio.H.L.normalized.WT_S102P_reverse: log2 of normalized H/L ratio; for Ratio.H.L.normalized.WT_S102P_forward: forward experiment; for Log2_Ratio.H.L.normalized.WT_S102P_reverse / Ratio.H.L.normalized.WT_S102P_reverse: reverse experiment. The text has this:
The GATAD1 gene variants were ordered in a pTwist ENTR Kozak vector from Twist Bioscience. The genes were then transferred to a pDEST_pcDNA5_BirA_FLAG_Nterm vector[97] using the Gateway Clonase II system (Thermo Fisher Scientific). The resulting vectors, pEXPR_GATAD1-WT_N-term_BirA_FLAG, pEXPR_GATAD1-S102P_N-term_BirA_FLAG, pEXPR_GATAD1-S102D_N-term_BirA_FLAG, and pEXPR_GATAD1-S102A_N-term_BirA_FLAG, were used to generate tetracycline-inducible stable Flp-In^TM-293 T-REx cells. A 6-well plate was co-transfected with 0.5 µg of the pEXPR plasmid and 1 µg of the pOG44 Flp-recombinase expression vector (Thermo Fisher Scientific) using 4.5 µg of PEI (Polysciences) as a transfection reagent. The following day, the cells were trypsinized and transferred to a 10 cm dish containing DMEM supplemented with 10% FCS and 200 µg/ml hygromycin B (Invivogen) for selection. The cells were cultured for approximately 18 days with media exchange every 3 days until visible colonies were observed. After around 18 days, the colonies were trypsinized and transferred to another 10 cm dish for further characterization and experiments.
Stable Flp-In^TM-293 cell lines expressing GATAD1 variants were cultured using SILAC light (Lys0, Arg0) and SILAC heavy (Lys8, Arg10) media, as explained in the cell culture section. After full labeling, cells were split into 15 cm dishes and were treated with 1 μg/mL tetracycline for 24 h to induce the expression of GATAD1. After the induction period, cells were incubated with 50 μM biotin overnight for proximity biotinylation. As a control, wild-type GATAD1 cells, without biotin or tetracycline addition, were used. Samples were multiplexed, as shown in Supplementary Fig. 41A with both forward and reverse label swap (n = 2). Cells were then lysed in lysis buffer (50 mM Tris-HCl pH 7.5, 150 mM NaCl, 1% Triton X-100, 1 mM EDTA, 1 mM EGTA, 0.1% SDS) with freshly added protease inhibitors and 1% sodium deoxycholate. To digest the excess DNA, 1 μl of Benzonase was added, and the samples were incubated for 20 min at 37 °C. Biotinylated proteins were enriched for 3 h at 4 °C using streptavidin-sepharose beads (GE Cat# 17-5113-01). Beads were pre-washed twice with 0.01% BSA and twice with lysis buffer. After enrichment, the beads were washed one time with lysis buffer, two times with washing buffer (50 mM HEPES-KOH pH 8.0, 100 mM KCl, 10% glycerol, 2 mM EDTA, 0.1% NP-40), and six times with 50 mM ammonium bicarbonate. Beads were resuspended in ammonium bicarbonate, and an on-bead protein digest with 1 μg of trypsin followed overnight. The next day, the digested proteins were transferred to a fresh tube and were incubated with 10 mM DTT for 30 min at 37 °C and with 55 mM iodoacetamide for 20 min at 37 °C in the dark. Samples were desalted with StageTips.
Peptides were separated using reversed-phase liquid chromatography (EASY nLC II 1200, Thermo Fisher Scientific) with self-made C18 microcolumns (20 cm long) packed with ReproSil-Pur C18-AQ 1.9 μm resin (Dr. Maisch, cat# r119.aq.0001). The chromatography system was coupled online to the electrospray ion source (Proxeon) of an Orbitrap Exploris 480 mass spectrometer (Thermo Fisher Scientific). The mobile phase consisted of buffer A (0.1% formic acid and 5% acetonitrile) and buffer B (0.1% formic acid and 80% acetonitrile). Peptides were eluted using a gradient with increasing concentrations of buffer B over 110 minutes, at a flow rate of 250 nl/min. Mass spectrometry data was acquired in data-dependent mode with settings for one full scan (resolution: 60,000; m/z range: 350–1600; normalized AGC target: 300%; maximum injection time: 10 ms), followed by top 20 MS/MS scans using higher-energy collisional dissociation (resolution: 15,000; m/z range: 200–2000; normalized AGC target: 100%; maximum injection time: 120 ms; isolation width: 1.3 m/z; normalized collision energy: 28%).
Raw files were analyzed with MaxQuant, version 2.0.3.0. […]

B1: PDAP1 (protein, UniProt Q13442 1-181, looked up)
28 kDa heat- and acid-stable …: MPKGGRKGGHKGRARQYTSPEEIDAQLQAEKQKAREEEEQKEGGDGAAGDPKKEKKSLDSDESEDEEDDYQQKRKGVEGLIDIENPNRVAQTTKKVTQLDLDGPKELSRREREEIEKQKAKERYMKMHLAGKTEQAKADLARLAIIRKQREEAARKKEEERKAKDDATLSGKRMQSLSLNK
For B1, the Log2_Ratio.H.L.normalized.WT_S102P_forward was found to be 1.555, the Ratio.H.L.normalized.WT_S102P_forward amounted to 0.3404, the Log2_Ratio.H.L.normalized.WT_S102P_reverse is 1.001 and the Ratio.H.L.normalized.WT_S102P_reverse is 2.0014.

B2: KNOP1 (protein, UniProt Q1ED39 1-458, looked up)
Lysine-rich nucleolar protein …: MITKTHKVDLGLPEKKKKKKVVKEPETRYSVLNNDDYFADVSPLRATSPSKSVAHGQAPEMPLVKKKKKKKKGVSTLCEEHVEPETTLPARRTEKSPSLRKQVFGHLEFLSGEKKNKKSPLAMSHASGVKTSPDPRQGEEETRVGKKLKKHKKEKKGAQDPTAFSVQDPWFCEAREARDVGDTCSVGKKDEEQAALGQKRKRKSPREHNGKVKKKKKIHQEGDALPGHSKPSRSMESSPRKGSKKKPVKVEAPEYIPISDDPKASAKKKMKSKKKVEQPVIEEPALKRKKKKKRKESGVAGDPWKEETDTDLEVVLEKKGNMDEAHIDQVRRKALQEEIDRESGKTEASETRKWTGTQFGQWDTAGFENEDQKLKFLRLMGGFKNLSPSFSRPASTIARPNMALGKKAADSLQQNLQRDYDRAMSWKYSRGAGLGFSTAPNKIFYIDRNASKSVKLED
Regarding B2, the Log2_Ratio.H.L.normalized.WT_S102P_forward is given as 1.624, the Ratio.H.L.normalized.WT_S102P_forward is 0.3245, the Log2_Ratio.H.L.normalized.WT_S102P_reverse is reported as 1.083 and the Ratio.H.L.normalized.WT_S102P_reverse came to 2.1181.

B3: NPAT (protein, UniProt Q14207 1-1427, looked up)
Protein NPAT: MLLPSDVARLVLGYLQQENLISTCQTFILESSDLKEYAEHCTDEGFIPACLLSLFGKNLTTILNEYVAMKTKETSNNVPAIMSSLWKKLDHTLSQIRSMQSSPRFAGSQRARTRTGIAEIKRQRKLASQTAPASAELLTLPYLSGQFTTPPSTGTQVTRPSGQISDPSRSYFVVVNHSQSQDTVTTGEALNVIPGAQEKKAHASLMSPGRRKSESQRKSTTLSGPHSTIRNFQDPNAFAVEKQMVIENAREKILSNKSLQEKLAENINKFLTSDNNIAQVPKQTDNNPTEPETSIDEFLGLPSEIHMSEEAIQDILEQTESDPAFQALFDLFDYGKTKNNKNISQSISSQPMESNPSIVLADETNLAVKGSFETEESDGQSGQPAFCTSYQNDDPLNALKNSNNHDVLRQEDQENFSQISTSIQKKAFKTAVPTEQKCDIDITFESVPNLNDFNQRGNSNAECNPHCAELYTNQMSTETEMAIGIEKNSLSSNVPSESQLQPDQPDIPITSFVSLGCEANNENLILSGKSSQLLSQDTSLTGKPSKKSQFCENSNDTVKLKINFHGSKSSDSSEVHKSKIEINVLEPVMSQLSNCQDNSCLQSEILPVSVESSHLNVSGQVEIHLGDSLSSTKQPSNDSASVELNHTENEAQASKSENSQEPSSSVKEENTIFLSLGGNANCEKVALTPPEGTPVENSHSLPPESVCSSVGDSHPESQNTDDKPSSNNSAEIDASNIVSLKVIISDDPFVSSDTELTSAVSSINGENLPTIILSSPTKSPTKNAELVKCLSSEETVGAVVYAEVGDSASMEQSLLTFKSEDSAVNNTQNEDGIAFSANVTPCVSKDGGYIQLMPATSTAFGNSNNILIATCVTDPTALGTSVSQSNVVVLPGNSAPMTAQPLPPQLQTPPRSNSVFAVNQAVSPNFSQGSAIIIASPVQPVLQGMVGMIPVSVVGQNGNNFSTPPRQVLHMPLTAPVCNRSIPQFPVPPKSQKAQGLRNKPCIGKQVNNLVDSSGHSVGCHAQKTEVSDKSIATDLGKKSEETTVPFPEESIVPAAKPCHRRVLCFDSTTAPVANTQGPNHKMVSQNKERNAVSFPNLDSPNVSSTLKPPSNNAIKREKEKPPLPKILSKSESAISRHTTIRETQSEKKVSPTEIVLESFHKATANKENELCSDVERQKNPENSKLSIGQQNGGLRSEKSIASLQEMTKKQGTSSNNKNVLSVGTAVKDLKQEQTKSASSLITTEMLQDIQRHSSVSRLADSSDLPVPRTPGSGAGEKHKEEPIDIIKAPSSRRFSEDSSTSKVMVPPVTPDLPACSPASETGSENSVNMAAHTLMILSRAAISRTTSATPLKDNTQQFRASSRSTTKKRKIEELDERERNSRPSSKNLTNSSIPMKKKKIKKKKLPSSFPAGMDVDKFLLSLHYDE
Turning to B3, the Log2_Ratio.H.L.normalized.WT_S102P_forward is given as 1.209, the Ratio.H.L.normalized.WT_S102P_forward came to 0.4326, the Log2_Ratio.H.L.normalized.WT_S102P_reverse is 1.214 and the Ratio.H.L.normalized.WT_S102P_reverse stood at 2.3205.

B4: MSANTD2 (protein, UniProt Q6P1R3 1-559, looked up)
Myb/SANT-like DNA-binding …: MAAPCGSELPANSPLKIPKMEVLSPASPGGLSDGNPSLSDPSTPRGASPLGPGSAAGSGAAASGGLGLGLGGRSAASSSVSFSPGGGGGGAAAAAAAACRGMSWTPAETNALIAVWGNERLVEARYQQLEGAGTVFGSKAPGPAMYERVSRALAELGYERTPSQCRERIKTLRRCYSRVKEHGVGKRKSSYTFEQLEQVFGQGGWDAQPCQPVLINSSGLYQELESDGSTMEDYSQEDWGNHSQDLHGYPTDQELDEIPVTKRTLKIKQESSEEAQKRDIMQNIVQILESVQLKWELFQSWTDFSRLHLSNKLAIFGIGYNTRWKEDIRYHYAEISSQVPLGKRLREYFNSEKPEGRIIMTRVQKMNWKNVYYKFLEITISEARCLELHMEIDWIPIAHSKPTGGNVVQYLLPGGIPKSPGLYAIGYEECIERPLSPHMEQSSLDPGKEGRVDLETLSAQASLQVEIEPTRIIYCYLGIAEVRTLQQCLFLHFQANTKTFSKDWVGINGFLSQNCIVDPGVSPKSIYIKFVEVERDFLSAGSLVECLEKAIGYPLKFNN
In the case of B4, the Log2_Ratio.H.L.normalized.WT_S102P_forward is recorded as 1.423, the Ratio.H.L.normalized.WT_S102P_forward was 0.373, the Log2_Ratio.H.L.normalized.WT_S102P_reverse turned out to be 1.156 and the Ratio.H.L.normalized.WT_S102P_reverse was 2.2282.

B5: MFAP1 (protein, UniProt P55081 2-439, looked up)
Microfibrillar-associated …: SVPSALMKQPPIQSTAGAVPVRNEKGEISMEKVKVKRYVSGKRPDYAPMESSDEEDEEFQFIKKAKEQEAEPEEQEEDSSSDPRLRRLQNRISEDVEERLARHRKIVEPEVVGESDSEVEGDAWRMEREDSSEEEEEEIDDEEIERRRGMMRQRAQERKNEEMEVMEVEDEGRSGEESESESEYEEYTDSEDEMEPRLKPVFIRKKDRVTVQEREAEALKQKELEQEAKRMAEERRKYTLKIVEEETKKELEENKRSLAALDALNTDDENDEEEYEAWKVRELKRIKRDREDREALEKEKAEIERMRNLTEEERRAELRANGKVITNKAVKGKYKFLQKYYHRGAFFMDEDEEVYKRDFSAPTLEDHFNKTILPKVMQVKNFGRSGRTKYTHLVDQDTTSFDSAWGQESAQNTKFFKQKAAGVRDVFERPSAKKRKTT
Turning to B5, the Log2_Ratio.H.L.normalized.WT_S102P_forward turned out to be 1.854, the Ratio.H.L.normalized.WT_S102P_forward is recorded as 0.2766, the Log2_Ratio.H.L.normalized.WT_S102P_reverse came to 1.161 and the Ratio.H.L.normalized.WT_S102P_reverse turned out to be 2.2368.
